Measured values reported in publication PMC3576117.

Target: biotinylated, tyrosine-phosphorylated CLEC-2 alanine substitution mutant peptide (2–5 Ala)
Assay: SPR

Row | Substance | fold decrease in affinity against the wild type peptide [fold]
1 | GST-tagged recombinant Syk C-terminal SH2 domain (domain or fragment) | 4
2 | GST-tagged recombinant Syk tandem SH2 domains (both SH2 domains with the linker region) (domain or fragment) | 3
